experiment: soluble on expression in E. coli; label from the status in PepcDB or PDB records

| Sequence | soluble on expression in E. coli |
| --- | --- |
| MYSPKRVKLNVTSGMRKRPETGENNDDLYPPTALARNGISPYFIGKPRRKIVVETPSDSAQQQPPFKSRSQQNGLDDELDGIIIDEDEDRTVDVSFSQKQDTRKLKSRPFLGEKSSFKLGEIPKPKEEKRREEPFTMRGFDFGSDDKVTKIRDKICDIVDPTNARRTDPNFIRQMHENTLKGIEVASNPHFKKTRAPTKNRAAIQNTLGTLYPSFTTAAGQDPQNSKFQVPLDRQSSSQSIGSLAGIPPARRAPDIPKRCSNPLIRKAMGMDTEGGGKDEKMSGLRAEPTLKHFDENIISLIESEIMSVNNEIGWADVAGLEGAKKALREIVVLPFKRPDVFTGIRAPPKGVLLFGPPGTGKTMIGRCVASQCKATFFNISASSLTSKWVGEGEKLVRALFSVARLKLPSVIFIDEIDSLLSSRSESEHESSRRIKTEFLVQLDGVNTAPDERLLVLGATNRPQELDEAARRRFQKRLYIALPEPESRTQIVQNLLVGTRHDITNHNLERIRELTDGYSGADMRQLCTEAAMGPIRDIGDDIETIDKDDIRAVTVMDFAEAARVVRPTVDDSQLDAYAAWDKKFGCLPPPSISR | not soluble |
| MYVYKRDGRKEPVQFDKITARISRLCYGLDPKHIDAVKVTQRIISGVYEGVTTIELDNLAAETCAYMTTVHPDYATLAARIAISNLHKQTTKQFSKVVEDLYRYVNAATGKPAPMISDDVYNIVMENKDKLNSAIVYDRDFQYSYFGFKTLERSYLLRINGQVAERPQHLIMRVALGIHGRDIEAALETYNLMSLKYFTHASPTLFNAGTPKPQMSSCFLVAMKEDSIEGIYDTLKECALISKTAGGIGLHIHNIRSTGSYIAGTNGTSNGLIPMIRVFNNTARYVDQGGNKRPGAFALYLEPWHADIFDFIDIRKNHGKEEIRARDLFPALWIPDLFMKRVEENGTWTLFSPTSAPGLSDCYGDEFEALYTRYEKEGRGKTIKAQKLWYSILEAQTETGTPFVVYKDACNRKSNQKNLGVIKSSNLCCEIVEYSAPDETAVCNLASVALPAFIETSEDGKTSTYNFKKLHEIAKVVTRNLNRVIDRNYYPVEEARKSNMRHRPIALGVQGLADTFMLLRLPFDSEEARLLNIQIFETIYHASMEASCELAQKDGPYETFQGSPASQGILQFDMWDQKPYGMWDWDTLRKDIMKHGVRNSLTMAPMPTASTSQILGYNECFEPVTSNMYSRRVLSGEFQVVNPYLLRDLVDLGIWDEGMKQYLITQNGSIQGLPNVPQELKDLYKTVWEISQKTIINMAADRSVYIDQSHSLNLFLRAPTMGKLTSMHFYGWKKGLKTGMYYLRTQAASAAIQFTIDQKIADQATENVADISNLKRPSYMPSSASYAASDFVPAAVTANATIPSLDSSSEASREASPAPTGSHSLTKGMAELNVQESKVEVPEVPAPTKNEEKAAPIVDDEETEFDIYNSKVIACAIDNPEACEMCSG | soluble |
| NAIKESARLPELSLWEKIKAYFFTTHHAEALECIFNLYHHQELNLTPVQVRGAYIKLRALASQGCKEQFIIESQEHADKLIIKDDNGENILSIEVECHPEAFGLAKEINKS | soluble |
| NEVRFVVFHAVDTSEKQILVRSLEEAENKFAKLTQLLPDGLLLIEDDTIISANPASARLLGLNSPHELLGEELSRLFIDENTKKVFSHRLSTLISDKPFVCLTSARCGFERKVQLHADSTAILGSESQIILIQDA | not soluble |
| NEYLNNVKSKYEVQKQRIQIQNDTRYMNEIEAHYNELRRFRHDYQNMLISIDEYLKTDDLEGLQEYYQKNLAPVSNRVLKEKYNLEDLSRVKVKSIKSILFSKLSYAQSQEIEVHFDLKEPLIDITVNELDLDIALGIMLDNAIEASVGHADGEIMSAIFIEKNSTVFLIQNNVFEQLPPLWKLKEAGYSTKGKNRGIGLNSLSKIVNRNENMILETRVLGAVFLQRLTVKRVSQND | not soluble |

— the DeepSol protein solubility set
